How the values were obtained:
[1] = biological target: T1, recombinant soluble human CD154 (extracellular portion of human CD154 fused to mouse Cκ), trimeric (human; mouse, UniProt P29965 47-261); assay: SPR (BIAcore), ABI793 immobilised, CD154-κ 10 to 160 nM in solution, n = 3
T1 construct: extracellular domain; also called CD154-κ; soluble recombinant CD154; not shown: mouse immunoglobulin kappa constant region (Cκ)
T1 sequence (looked up): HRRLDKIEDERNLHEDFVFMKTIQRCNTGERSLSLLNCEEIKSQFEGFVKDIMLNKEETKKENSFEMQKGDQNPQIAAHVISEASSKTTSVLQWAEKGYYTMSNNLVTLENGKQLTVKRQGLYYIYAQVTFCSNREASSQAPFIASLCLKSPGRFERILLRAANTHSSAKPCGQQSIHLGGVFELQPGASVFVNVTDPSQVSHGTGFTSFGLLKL
Description: The association and dissociation rate constant for the binding of recombinant human CD154 to ABI793 is determined by BIAcore analysis. ABI793 is immobilized, and binding of soluble recombinant CD154 (CD154-κ) in a concentration range from 10 to 160 nM is measured by surface plasmon resonance. The chosen format represents a monovalent interaction. Data analysis is performed using the BIA evaluation software.

[2] = biological target: T1, recombinant soluble human CD154 …; assay: cell-based or functional assay
[3] = biological target: T1, recombinant soluble human CD154 …; assay: cell-free competitive binding assay: CD154-κ immobilised, biotinylated soluble human CD40, Eu-streptavidin fluorimetry
Description: The ability to inhibit the binding of CD154 to CD40 is tested in a cell-free competitive binding assay. Recombinant soluble human CD154 (i.e., the extracellular portion of human CD154 fused to mouse Cκ) is immobilized on microtiter plates and the plates incubated, in the presence or absence of a putative inhibitor, with biotinylated recombinant soluble human CD40. The fraction of CD40 bound to CD154 is fluorimetrically determined using Eu-labelled streptavidin as the detection reagent.

B1: ABI793 antibody (human anti-human CD154 monoclonal antibody from hybridoma # 207.2) (antibody, V domains shown)
VH: QVQLVQSGAEVQKPGSSVKVSCKASGGTFSNFAFNWVRQVPGQGLEWMGRILPSLDIASYAQKFQDRVTITADKSTSTAYMELSSLRSEDTAMYYCAREVDGGGFDYWGQGTLVTVSS
VL: DIQMTQSPSSLSASVGDRVTITCRASQGISSWLAWYQQKPEKAPKSLIYAASSLQSGVPSRFSGSGSGTDFTLTISSLQPEDFATYYCQQYNSYPFTFGGGTKVEIK
notes: FTC-labelled in part of the flow cytometry experiments; also called Antibody of the Invention
[1]
  Kd: 23.1 nM
  koff: 0.000538 s⁻¹
  kon: 23400 M⁻¹ s⁻¹
[2]
  Inhibition of CD154/IL-4 driven B Cell Proliferation (3H-TdR uptake), IC50: 0.073 µg/mL
[3]
  IC50: 0.075 µg/mL

Source: patent US20040038293A1 (Novartis, published 2004)
